Reference: paper PMC3718800, “Structural and Functional Perturbation of Giardia lamblia Triosephosphate Isomerase by Modification of a Non-Catalytic, Non-Conserved Region” (PLoS ONE, 2013)

Tested on: O=C[C@H](O)COP(=O)(O)O
Assay: Coupled alpha-glycerol-3-phosphate dehydrogenase assay following NADH decrease at 340 nm at 25°C in 100 mM triethanolamine/10 mM EDTA, pH 7.4, with 0.2 mM NADH and GAP varied from 0.3 to 3 mM, fitted to the Michaelis-Menten equation by non-linear regression.
Assay type: biochemical
Method: Glyceraldehyde 3-phosphate (GAP), buffers, salts and all the other analytical grade reagents were acquired from Sigma–Aldrich; α-glycerol-3-phosphate dehydrogenase (α-GDH) was from Roche, crystallization screen kits were obtained from Hampton Research. Restriction enzymes, DNA polymerase and T4 DNA ligase were purchased from New England BioLabs and Invitrogene. Oligonucleotide synthesis and DNA sequencing was performed at the Unidad de Biología Molecular, Instituto de Fisiología Celular, UNAM. Protein concentration was determined by the bicinchoninic acid method or by absorbance at 280 nm for pure GlTIM (ε280 = 26600 M^-1cm^-1). The TIM activity was determined at 25°C by a coupled assay, following the decrease in absorbance at 340 nm. The standard reaction mixture contained 100 mM triethanolamine/10 mM EDTA, pH 7.4 (TE buffer), 1 mM GAP, 0.2 mM NADH, and 0.9 units of α-GDH (20 μg/mL); the reaction was initiated by addition of 5 ng/mL of WT, C222V or C222M GlTIM, 10 ng/mL of C222N, 20 ng/mL of C222D or C222F, and 200 ng/mL of C222K. Kinetic, binding and stability data were analyzed by non-linear regression calculations with Origin software.
Determination of Km and Vmax was performed by fitting initial velocity data at GAP concentrations ranging from 0.3 to 3 mM to the Michaelis-Menten equation (v = Vmax•S/Km+S) by non-linear regression calculations. The kcat was derived from Vmax by considering a molecular mass for the monomer of 27.7 kDa. The Ki for 2-phosphoglycolate (2-PG) was calculated by global fit of initial velocity curves (GAP from 0.3 to 3 mM) obtained at different fixed concentrations of the inhibitor. Prior to fitting collectively the data to the simple competitive inhibition equation (v = Vmax•S/Km(1+I/Ki)+S), individual data were plotted as double reciprocal plots to confirm competitive inhibition.

Substance | Km | Vmax | kcat
C222D (Giardia duodenalis; C222D) | 4880 ± 810 µM | 3720 µmol/min/mg | 3330 s⁻¹
C222F (Giardia duodenalis; C222F) | 3900 ± 460 µM | 1660 µmol/min/mg | 1500 s⁻¹
C222K (Giardia duodenalis; C222K) | 3100 ± 640 µM | 255 µmol/min/mg | 217 s⁻¹
C222M (Giardia duodenalis; C222M) | 1850 ± 460 µM | 3100 µmol/min/mg | 2800 s⁻¹
C222N (Giardia duodenalis; C222N) | 2790 ± 730 µM | 3650 µmol/min/mg | 3320 s⁻¹
C222V (Giardia duodenalis; C222V) | 960 ± 120 µM | 9560 µmol/min/mg | 8670 s⁻¹
